The target in test [1] is Protein A (UniProt P38507). The test can be described thus: Back scattering interferometry, free solution in PBS, 0.67 uM Protein A with IgG varied over 6 concentrations, 2 h at room temperature, PEG-5mer passivated chip.
Test [2] addresses Protein A (UniProt P38507). The test can be described thus: Back scattering interferometry, free solution in PBS, 0.67 uM Protein A with IgG varied over 6 concentrations, 2 h at room temperature, PEG 200 passivated chip.

Here are results for 2 substances from patent publication US20100099203A1.

As for IgG (antibody), the Kd (commonly the constant that tells how readily two partners part at equilibrium) in test [1] was 8 nM. In other words, the single-digit nanomolar range. In test [2], IgG Fc segment yielded a Kd of 35 nM.
